{"source": "patent US20230303623A1", "about": "“PEPTIDES AND METHODS OF USE” (REALTA LIFE SCIENCES, INC., priority 2020, published 2023)", "key": {"[1]": {"target": "PD-L1 (Homo sapiens, UniProt Q9NZQ7)", "sequence (Q9NZQ7 19-290)": "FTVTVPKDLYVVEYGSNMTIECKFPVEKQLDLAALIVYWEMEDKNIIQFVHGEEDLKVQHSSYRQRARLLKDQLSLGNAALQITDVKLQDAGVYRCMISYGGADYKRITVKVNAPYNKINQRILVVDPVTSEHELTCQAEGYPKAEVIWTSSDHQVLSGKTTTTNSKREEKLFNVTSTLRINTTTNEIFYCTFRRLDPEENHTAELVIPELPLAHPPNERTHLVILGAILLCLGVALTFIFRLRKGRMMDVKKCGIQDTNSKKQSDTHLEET", "assay": "Peptide binding to immobilized PD-L1, ELISA plate-based assay", "conditions": "increasing amounts of peptide", "protocol": "(§1) RLS-0134 and RLS-0150 were allowed to bind to immobilized CTLA-4, PD-1, PD-L1 on the surface of the plate. Bound C1q and MAC-1 served as a positive and negative control for peptide binding, respectively. Increasing amounts of peptides were added to the plates followed by a rabbit polyclonal antibody that recognizes the peptides and then a secondary anti-rabbit antibody conjugated with HRP. The plate was then developed by addition of TMB as the substrate for the colorimetric assay.\n(§2) The inventors further evaluated if RLS-0134 and RLS-0150 could bind to the well characterized checkpoint inhibitor, cytotoxic T-lymphocyte associated protein 4 (CTLA-4 aka CD152). […] Therefore, the pharmaceutical inhibition of CTLA-4 or its ligand has been considered a promising strategy by many cancer researchers and could be a therapeutic target in cancer immunotherapy. To ascertain the ability of select PIC1 peptides to bind CTLA-4, a binding assay was performed in which these proteins were coated on a microtiter plate followed by incubation with increasing amounts of either RLS-0134 and RLS-0150. Plates coated with PD-1, PD-L1 and C1q served as a positive control for peptide binding whereas MAC-1 served as a negative control for peptide binding."}, "[2]": {"test_system": "antibody-initiated complement activation (lysis of AB human red blood cells by type O serum)", "assay": "ABO incompatibility hemolytic complement assay (CH50-type)", "assay_type": "cell-based", "conditions": "peptides 0.8 mg/ml (~0.5 mM); compared to parent peptide", "protocol": "FIG. 1A-1B show PIC1 peptides' inhibition of complement activation in an ABO incompatibility assay. […] Inhibition of ABO incompatibility hemolysis in a CH50-type assay. Peptides are at a final concentration of 0.5 mM. Values are represented as a percent of the positive control, which consists of human 0 sera and AB red blood cells in GVBS^++ buffer. Data are the means of n=3 independent experiments±SEM.\nFor hemolytic complement assays, human red blood cells (RBCs) from type AB donors were purified, washed, and standardized to 1.0×10^9 cells/ml, as previously described. Human sera from type 0 donors at a 15% final concentration was combined with 0.5 mM of the peptides and the volume was brought up to 0.2 ml with GVBS^++ and 5.0×10^7 RBCs. The samples were incubated for 1 hour at 37° C. and then spun at 3,000 rpm for 5 minutes and the supernatant was collected and read at 412 nm. Values are represented as a percent of the positive control, which consists of human 0 sera and AB red blood cells in GVBS^++ buffer.\nTo assess the extent to which the peptide variants inhibit antibody-initiated complement activation, an ABO incompatibility ex vivo assay was utilized in which purified erythrocytes from a ‘type AB+’ donor are incubated with sera from a ‘type 0’ subject containing anti-A and anti-B antibodies. Peptides were tested at a concentration of 0.8 mg/ml (˜0.5 mM)."}, "[3]": {"target": "PD-1 (Homo sapiens, UniProt Q15116)", "sequence (Q15116 25-288)": "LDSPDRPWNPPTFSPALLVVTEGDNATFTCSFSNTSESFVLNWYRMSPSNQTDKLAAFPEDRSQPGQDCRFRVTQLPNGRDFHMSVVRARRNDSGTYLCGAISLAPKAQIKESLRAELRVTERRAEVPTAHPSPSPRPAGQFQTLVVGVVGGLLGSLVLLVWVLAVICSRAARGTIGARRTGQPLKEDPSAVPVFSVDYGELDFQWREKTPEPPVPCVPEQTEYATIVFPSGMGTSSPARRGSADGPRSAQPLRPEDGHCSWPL", "assay": "Peptide binding to immobilized PD-1, ELISA plate-based assay", "conditions": "increasing amounts of peptide", "protocol": "as §1, §2"}, "[4]": {"target": "T1, CTLA-4 (Homo sapiens, UniProt P16410)", "T1 sequence (P16410 36-223)": "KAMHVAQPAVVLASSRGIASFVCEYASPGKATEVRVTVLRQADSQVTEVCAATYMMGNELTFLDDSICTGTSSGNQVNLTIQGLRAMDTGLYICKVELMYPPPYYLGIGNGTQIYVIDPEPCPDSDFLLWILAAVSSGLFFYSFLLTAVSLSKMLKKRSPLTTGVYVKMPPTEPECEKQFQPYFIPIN", "assay": "Peptide binding to immobilized CTLA-4, ELISA plate-based assay", "conditions": "increasing amounts of peptide", "protocol": "as §1, §2"}, "[5]": {"target": "T2, C1q (Homo sapiens, UniProt P02745+P02746+P02747)", "T2 construct": "purchased Complement Technology (Tyler, TX)", "T2 sequence (P02745 23-245)": "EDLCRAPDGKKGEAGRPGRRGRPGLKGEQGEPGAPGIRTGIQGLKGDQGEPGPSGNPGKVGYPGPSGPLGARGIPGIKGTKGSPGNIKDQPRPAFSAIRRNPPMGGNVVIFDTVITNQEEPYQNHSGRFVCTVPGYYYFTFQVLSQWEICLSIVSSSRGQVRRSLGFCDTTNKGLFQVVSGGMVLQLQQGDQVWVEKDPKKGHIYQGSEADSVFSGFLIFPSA", "T2 sequence (P02746 28-253)": "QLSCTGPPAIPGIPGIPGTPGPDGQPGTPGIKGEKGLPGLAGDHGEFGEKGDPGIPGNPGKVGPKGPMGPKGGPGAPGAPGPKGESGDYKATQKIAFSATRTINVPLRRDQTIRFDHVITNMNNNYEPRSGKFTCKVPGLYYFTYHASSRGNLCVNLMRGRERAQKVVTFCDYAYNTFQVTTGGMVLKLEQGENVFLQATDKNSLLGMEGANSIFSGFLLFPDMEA", "T2 sequence (P02747 29-245)": "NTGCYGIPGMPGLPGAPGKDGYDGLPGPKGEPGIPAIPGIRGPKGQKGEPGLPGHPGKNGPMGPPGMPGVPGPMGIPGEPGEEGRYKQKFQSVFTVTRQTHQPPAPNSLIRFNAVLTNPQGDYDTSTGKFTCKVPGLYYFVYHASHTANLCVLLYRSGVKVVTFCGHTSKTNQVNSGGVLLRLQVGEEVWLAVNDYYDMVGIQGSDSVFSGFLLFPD", "assay": "Peptide binding to immobilized C1q (positive control), ELISA plate-based assay of Example 3", "conditions": "increasing amounts of peptide; positive control protein", "protocol": "as §1, §2"}, "[6]": {"target": "T2, C1q", "assay": "C1q binding ELISA-type assay", "conditions": "compared to parent peptide", "protocol": "The C1q binding assay was performed as previously described. Briefly, an Immunlon-2 HB ELISA plate was coated with 1 μg/ml C1q in bicarbonate buffer overnight at 4° C. The plates were washed with PBS-T (phosphate buffered saline+0.1% Tween) and then blocked with 1% gelatin/PBS for 2 hours at room temperature. After washing, the plates were incubated with the peptides starting at 2.5 mg/ml and then serially diluted in 1% gelatin/PBS for 1 hour at room temperature followed by washing. Plates were then probed with rabbit antibody raised against the lead peptide […] (SEQ ID NO: 2) that lacked PEGylation at 1:1000 in 1% gelatin/PBS for 1 hour at room temperature followed by a goat anti-rabbit HRP (Sigma Aldrich, St Louis, MO) at 1:1,000 in 1% gelatin/PBS for 1 hour at room temperature with a washing step in between. After addition of TMB substrate solution to the wells, the reaction was stopped using 1N H2SO4, and the plate read on a BioTek Synergy HT plate reader at 450 nm.\nThe astrovirus capsid protein and the PIC1 molecules derived from it inhibit classical complement pathway activation by binding to the pattern recognition molecule C1q. The inventors next tested peptide variant binding to C1q in an ELISA-type assay in which C1q is used as the capture substrate and bound peptide detected with a rabbit polyclonal antibody against the peptide portion of PA-dPEG24 ([…]-d24; SEQ ID NO: 3). Binding curves were derived for the stapled and D-amino acid peptides based on the PA-I8Sar and PA-C9Sar (FIG. 5A-5C) backbone, from which half-maximal binding concentrations were calculated (FIGS. 2A and B, respectively). […] For the peptides based on the PA-C9Sar backbone, C1q was bound to a greater degree than the parent peptide (FIG. 2B)."}, "[7]": {"assay": "Total Antioxidant Capacity (TAC) assay", "conditions": "highest peptide concentration 1.5 mM; compared to parent peptide", "protocol": "As previously reported, the TAC (Total Antioxidant Capacity) Assay (Cell Biolabs, Inc, San Diego, CA) was used to measure the antioxidant capacity of the PIC1 variants based on the reduction of copper (II) to copper (I). The kit protocol was performed per the manufacturer's recommendations.\nThe antioxidant properties for the PIC1 variants were evaluated in a Total Antioxidant Capacity (TAC) assay, as previously reported. Total antioxidant activity over a range of peptide concentrations were determined for the stapled and the D-amino acid peptides based on the PA-I8Sar and PA-C9Sar backbones (FIG. 4A-4B), with the activity of the highest peptide concentration reported (1.5 mM) (FIG. 5A-5C)."}, "[8]": {"target": "MAC-1 (Homo sapiens, UniProt P05107+P11215)", "sequence (P05107 23-769, other chains not shown)": "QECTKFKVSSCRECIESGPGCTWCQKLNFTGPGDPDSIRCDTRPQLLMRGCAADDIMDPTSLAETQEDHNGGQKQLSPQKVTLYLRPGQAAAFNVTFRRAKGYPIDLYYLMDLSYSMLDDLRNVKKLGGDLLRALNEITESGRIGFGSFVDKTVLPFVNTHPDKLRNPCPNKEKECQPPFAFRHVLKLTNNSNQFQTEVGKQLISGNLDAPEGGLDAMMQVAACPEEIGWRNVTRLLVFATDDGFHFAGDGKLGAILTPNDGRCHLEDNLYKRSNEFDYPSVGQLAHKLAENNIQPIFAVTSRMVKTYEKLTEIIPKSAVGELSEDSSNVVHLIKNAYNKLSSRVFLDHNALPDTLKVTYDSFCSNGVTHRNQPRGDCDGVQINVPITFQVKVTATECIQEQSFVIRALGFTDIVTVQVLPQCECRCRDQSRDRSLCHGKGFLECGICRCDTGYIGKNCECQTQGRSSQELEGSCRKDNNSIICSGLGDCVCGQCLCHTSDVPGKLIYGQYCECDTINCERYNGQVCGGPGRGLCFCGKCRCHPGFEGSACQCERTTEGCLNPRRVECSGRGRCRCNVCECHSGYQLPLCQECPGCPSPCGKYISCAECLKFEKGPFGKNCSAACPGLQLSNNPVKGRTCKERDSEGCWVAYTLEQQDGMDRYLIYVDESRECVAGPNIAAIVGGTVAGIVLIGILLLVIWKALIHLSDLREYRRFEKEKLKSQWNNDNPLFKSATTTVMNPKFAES", "assay": "Peptide binding to immobilized MAC-1 (negative control), ELISA plate-based assay", "conditions": "increasing amounts of peptide; negative control protein", "protocol": "as §1, §2"}, "[9]": {"target": "T3, MPO (Homo sapiens, UniProt P05164)", "T3 construct": "purchased Lee BioSolutions (Maryland Heights, MO)", "T3 sequence (P05164 279-745 limits assumed)": "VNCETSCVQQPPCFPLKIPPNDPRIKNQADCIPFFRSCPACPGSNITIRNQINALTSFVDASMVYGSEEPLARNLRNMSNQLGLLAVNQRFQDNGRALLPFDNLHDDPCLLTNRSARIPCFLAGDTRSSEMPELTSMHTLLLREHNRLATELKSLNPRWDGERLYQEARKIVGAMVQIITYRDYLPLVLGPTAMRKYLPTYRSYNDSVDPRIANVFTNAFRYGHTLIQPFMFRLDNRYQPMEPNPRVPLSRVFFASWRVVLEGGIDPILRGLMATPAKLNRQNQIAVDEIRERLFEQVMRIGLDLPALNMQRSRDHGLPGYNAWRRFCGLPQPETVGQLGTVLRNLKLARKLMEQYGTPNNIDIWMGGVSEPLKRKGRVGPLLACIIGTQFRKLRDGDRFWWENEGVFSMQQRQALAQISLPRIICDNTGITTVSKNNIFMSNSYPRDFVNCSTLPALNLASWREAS", "T3 sequence (P05164 165-273 limits assumed)": "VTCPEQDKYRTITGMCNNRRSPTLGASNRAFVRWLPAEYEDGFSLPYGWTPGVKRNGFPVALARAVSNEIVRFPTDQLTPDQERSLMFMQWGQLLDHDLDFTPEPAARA", "assay": "MPO activity assay", "assay_type": "biochemical", "conditions": "compared to parent peptide", "protocol": "The MPO activity assay was performed as previously described. Briefly, peptides were diluted to 12 mg/ml and serially titrated in a 96 well plate at a volume of 0.02 ml. MPO was diluted to 20 μg/ml and 0.02 ml was added to the titrated peptides. TMB (3,30,5,50-tetramethylbenzidine) (0.1 ml) was added to each well for 2 minutes, followed by 0.1 ml of 2.5 N H2SO4 for another 2 minutes, and then read on a 96 well plate reader (BioTek) at 450 nm.\nTo ascertain the inhibition of MPO activity by the various peptides, a range of concentrations of the stapled peptides and D-amino acid variants were tested (FIG. 3A-3B) and half-maximal activity levels were calculated from the dose-response curves (FIG. 6A-6C, respectively)."}}, "note": "Bridges are numbered along the chain shown (N, C = ends). Where no end group is shown, it is not given here. [ ]: non-standard residue; d: D form. R8 = C=CCCCCCC[C@@](C)(N)C(=O)O; S5 = C=CCCC[C@](C)(N)C(=O)O; Sar = CNCC(=O)O"}
{"substance": "IAR8ILEP(Sar)CS5QERAA (IA[R8]ILEP[Sar]C[S5]QERAA; staple 3-10; not fully specified; printed as IAR8ILEP(Sar)CS5QERAA) [PA-0134]", "values": [{"measurement": "binding to PD-L1, in words", "setting": "[1]", "result": "dose-dependent binding"}, {"measurement": "inhibition of ABO incompatible hemolysis (complement inhibition), in words", "setting": "[2]", "result": "similar"}, {"measurement": "binding to PD-1, in words", "setting": "[3]", "result": "dose-dependent binding"}, {"measurement": "binding to CTLA-4, in words", "setting": "[4]", "result": "bound CTLA-4"}, {"measurement": "binding to C1q, in words", "setting": "[5]", "result": "dose-dependent binding"}, {"measurement": "binding to C1q (binding curves, half-maximal binding), in words", "setting": "[6]", "result": "markedly increased binding to C1q"}, {"measurement": "total antioxidant capacity, in words", "setting": "[7]", "result": "decreased activity compared to the parent peptide"}, {"measurement": "binding to MAC-1, in words", "setting": "[8]", "result": "minimal binding"}, {"measurement": "inhibition of MPO activity (half-maximal values), in words", "setting": "[9]", "result": "reduced inhibition of MPO activity"}]}
